To fix the notation:
B1: chi 5F3: chimeric anti-MUC1 SEA antibody of WO 2021/186427; variable regions SEQ ID NOs: 42 and 43; parent of the humanized antibodies (antibody, V domains shown)
VH: MRVLILLCLFTAFPGVLSDVQVQESGPDLVKPSQSLSLTCTVTGHSITRGSSWHWIRQFPGNKLEWMGYIHYGGGTSYNPSLKSRISITRDTSKNQFFLQLNSVTTEDTATFFCARYSYDITYRWFFDVWGAGTTVIVSS
VL: MVSTPQFLVFLLFWIPASRGDILLTQSPAILSVSPGERVSFSCRASQNIGTSIHWYQQRKNGSPRLLIKYASESISGIPSRFSGSGSGTDFTLSINSVESEDMADYYCQQNNNWPLTFGAGTKLELK
notes: chimeric anti-MUC1 SEA antibody of WO 2021/186427; parent of the humanized antibodies
B2: HM3 LM3: variant of SP66; VH HM3 SEQ ID NO: 9, VL LM3 SEQ ID NO: 14 (antibody, V domains shown)
VH: EIQLVQSGAEVKKPGSSVKVSCKVTGHSITRGSSWHWMRQAPGQGLEWIGYIHYGGGTSYNPSLKSRATLTRDTSTNTAYMELSSLRSEDTAFYFCARYSYDITYRWFFDVWGQGTLVTVSS
VL: DIQMTQSPSTLSASVGDRVTITCRASQNIGTSIHWYQQKPGKAPKLLIKYASESISGVPSRFSGSGSGTEFTLTISSLQPDDFATYYCQQNNNWPLTFGQGTKVEVK
B3: HM4 LM3: variant of SP66; VH HM4 SEQ ID NO: 10, VL LM3 SEQ ID NO: 14 (antibody, V domains shown)
VH: B2 VH with A79F
VL: B2 VL
B4: HM2 LM2: variant of SP66; VH HM2 SEQ ID NO: 8, VL LM2 SEQ ID NO: 13 (antibody, V domains shown)
VH: B2 VH with A68I, L70I
VL: B2 VL with Y50R
B5: HM4 LM2: variant of SP66; VH HM4 SEQ ID NO: 10, VL LM2 SEQ ID NO: 13 (antibody, V domains shown)
VH: B2 VH with A79F
VL: B2 VL with Y50R
B6: HM3 LM2: variant of SP66; VH HM3 SEQ ID NO: 9, VL LM2 SEQ ID NO: 13 (antibody, V domains shown)
VH: B2 VH
VL: B2 VL with Y50R
B7: HM5 LM2: variant of SP66; VH HM5 SEQ ID NO: 11, VL LM2 SEQ ID NO: 13 (antibody, V domains shown)
VH: B2 VH with A68I, L70I, A79F
VL: B2 VL with Y50R
B8: HM2 LM3: variant of SP66; VH HM2 SEQ ID NO: 8, VL LM3 SEQ ID NO: 14 (antibody, V domains shown)
VH: B2 VH with A68I, L70I
VL: B2 VL
B9: HM5 LM3: variant of SP66; VH HM5 SEQ ID NO: 11, VL LM3 SEQ ID NO: 14 (antibody, V domains shown)
VH: B2 VH with A68I, L70I, A79F
VL: B2 VL

From US20250041437A1, “HUMANIZED MUC1 ANTIBODY AND ANTIBODY DRUG CONJUGATE” (Sun Pharma Advanced Research Company Limited, priority 2023, published 2025) come the findings set out here.

Where a chain is given by its changes, count along the chain named.

One assay concerns the target T1, recombinant human MUC1-SEA (Homo sapiens, UniProt P15941).
T1 construct: on recombinant human MUC1-SEA on SPR; purchased Acrobiosystems MU1-H52H9
T1 sequence (P15941 1039-1148 limits assumed): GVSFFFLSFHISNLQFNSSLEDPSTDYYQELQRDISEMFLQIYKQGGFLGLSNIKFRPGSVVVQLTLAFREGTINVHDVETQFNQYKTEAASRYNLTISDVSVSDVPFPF
Put plainly: Binding strength by Surface Plasmon Resonance (SPR). To be noted: Table 2, variants of humanized anti-MUC1 5F3 mAb. The procedure: Binding strength assessment using Surface Plasmon Resonance (SPR): MUC1 antigen (Acrobiosystems, Cat: MU1-H52H9) was captured on the anti-His immobilized on CM5 chip at 5 μl/min flow rate for 60 s. Post this concentration range of 0-50 nM of antibody or ADC is passed over MUC1 antigen at a flow rate of 30 μl/min flow rate for 120 s, keeping dissociation time of 1800 s at 25°. The dose response generated is evaluated on BIAevaluation software for the calculation of affinity of antibody to antigen as measured by dissociation constant (KD).
B1: the ka was 4.39e+06 M⁻¹ s⁻¹.

In the case of B2, the ka stood at 4.47e+07 M⁻¹ s⁻¹.

Turning to B3, the ka turned out to be 2.88e+06 M⁻¹ s⁻¹.

With B4, the ka worked out at 1.77e+06 M⁻¹ s⁻¹.

As for B5, the ka amounted to 4.08e+06 M⁻¹ s⁻¹.

For B6, the ka is 2.65e+06 M⁻¹ s⁻¹.

As for B7, the ka came out at 4.8e+06 M⁻¹ s⁻¹.

For B8, the ka came to 3.14e+06 M⁻¹ s⁻¹.

As to B9, the ka was 3.97e+06 M⁻¹ s⁻¹.

Another assay addresses T2, MUC1-X-FL-1118 (R1108A, E1109A, N1113A, E1118A) (Homo sapiens, UniProt P15941, E1109A/E1118A/N1113A/R1108A).
T2 construct: wild-type MUC1-X extracellular domain (MUC1-X-FL-WT); His (implied by Ni-NTA purification; pET30a(+) vector); made in house; host or cells: E. coli (pET30a(+))
T2 sequence (P15941 24-115 isoform P15941-8 limits assumed): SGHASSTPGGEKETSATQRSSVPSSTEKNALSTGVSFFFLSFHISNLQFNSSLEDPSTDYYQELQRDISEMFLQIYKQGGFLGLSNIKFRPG
T2 sequence (P15941 1098-1158 R1108A/E1109A/N1113A/E1118A limits assumed): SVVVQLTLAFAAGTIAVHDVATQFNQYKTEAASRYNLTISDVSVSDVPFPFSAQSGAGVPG
Put plainly: Epitope mapping ELISA, mutant MUC1-X-FL-1118. The assay is classed as binding. Conditions: mutation at position 1118.
As to B1, the “binding to MUC1 mutant (in words)” value is “lost”.

Another assay addresses T3, MUC1-X-FL-1116 (R1108A, E1109A, N1113A, D1116A) (Homo sapiens, UniProt P15941, D1116A/E1109A/N1113A/R1108A).
T3 construct: wild-type MUC1-X extracellular domain (MUC1-X-FL-WT); His (implied by Ni-NTA purification; pET30a(+) vector); made in house; host or cells: E. coli (pET30a(+))
T3 sequence (P15941 24-115 isoform P15941-8 limits assumed): T2 sequence (P15941 24-115 isoform P15941-8 limits assumed)
T3 sequence (P15941 1098-1158 R1108A/E1109A/N1113A/D1116A limits assumed): T2 sequence (P15941 1098-1158 R1108A/E1109A/N1113A/E1118A limits assumed) with D19A, A21E
Description: Epitope mapping ELISA, mutant MUC1-X-FL-1116. The assay is classed as binding. Conditions: mutation at position 1116. (In general: An ELISA detects its analyte on a solid surface through an enzyme-linked reagent.)
On to B1, for which the “binding to MUC1 mutant (in words)” value is on record as “maintained”.
